From publication PMC7703809 (ChemMedChem, 2020) come the findings set out here.

Non-standard residues stand in square brackets, D forms with d. Residues, ends and D or L forms follow the SMILES beside them. No end group written: not given here. *: point of attachment. Benzoyl(4-octyl) = CCCCCCCCc1ccc(C(=O)*)cc1; pT = C[C@@H](OP(=O)(O)O)[C@H](N)C(=O)O Where only a bound is given, the exact number is not on record here.

One assay addresses PLK1 PBD (367–603) (Homo sapiens, UniProt P53350). Description: Fluorescence polarization competitive binding assay, PLK1 PBD. The following applies: for Selectivity Index: PLK1 vs PLK3 PBD, accounting for 5-fold difference in tracer affinity. On the technique in general: In fluorescence polarisation assays a small probe gives low polarisation when free and higher when bound to something large.

A further assay has as its target T1, PLK3 PBD (335–646) (Homo sapiens, UniProt Q9H4B4).
T1 sequence (Q9H4B4 335-646): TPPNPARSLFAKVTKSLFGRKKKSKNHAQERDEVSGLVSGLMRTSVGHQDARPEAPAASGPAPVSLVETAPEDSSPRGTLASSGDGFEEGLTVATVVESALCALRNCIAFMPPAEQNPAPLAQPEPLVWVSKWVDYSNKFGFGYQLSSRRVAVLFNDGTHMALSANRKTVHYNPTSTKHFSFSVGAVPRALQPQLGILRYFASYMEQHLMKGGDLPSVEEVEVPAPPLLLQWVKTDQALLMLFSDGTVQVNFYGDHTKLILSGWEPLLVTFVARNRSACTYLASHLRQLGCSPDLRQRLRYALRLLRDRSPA
Description: Fluorescence polarization competitive binding assay, PLK3 PBD.

Assay [1] deals with T2, PLK3 fluorescein tracer phosphopeptide (also: fluorescein label, place not given here).
T2 chain: GPLATS[pT]PKNG
In words: fluorescence polarization.

The target in a further assay is T3, PBIP phosphopeptide 6 (Homo sapiens).
T3 chain: Ac-PLHS[pT]A
In words: fluorescence polarization competition.

For another assay, the target named is T4, PBIP phosphopeptide 5 (Homo sapiens).
T4 chain: Ac-LHS[pT]AI
In words: fluorescence polarization competition.

A further assay has as its target T5, chimeric peptide 3.
T5 chain: Ac-PLHS[pT]PNGL
Description: fluorescence polarization competition.

A further assay deals with T6, chimeric peptide 8.
T6 chain: GPLATS[pT]PNGL
Description: fluorescence polarization competition.

The target in another assay is T7, Cdc25C phosphopeptide 1 (Homo sapiens).
T7 chain: LLCS[pT]PNGL
Description: fluorescence polarization competition.

The target in a further assay is T8, chimeric peptide 9.
T8 chain: Ac-PLHS[pT]PKNG
Description: fluorescence polarization competition.

Another assay concerns the target T9, PBIP phosphopeptide 4 (Homo sapiens).
T9 chain: Ac-PLHS[pT]AI
In words: fluorescence polarization competition.

The target of another assay is T10, FLIP 19.
T10 chain: {4‑butylbenzoyl}-S[pT]PNGL
In words: fluorescence polarization competition.

Another assay addresses T11, PLK3 consensus peptide 7.
T11 chain: GPLATS[pT]PKNG
In words: fluorescence polarization competition.

The next assay addresses T12, FLIP 21.
T12 chain: {Benzoyl(4-octyl)}-S[pT]PNGL
In words: fluorescence polarization competition.

PLK1 PBD (367–603), sequence (P53350 367-603): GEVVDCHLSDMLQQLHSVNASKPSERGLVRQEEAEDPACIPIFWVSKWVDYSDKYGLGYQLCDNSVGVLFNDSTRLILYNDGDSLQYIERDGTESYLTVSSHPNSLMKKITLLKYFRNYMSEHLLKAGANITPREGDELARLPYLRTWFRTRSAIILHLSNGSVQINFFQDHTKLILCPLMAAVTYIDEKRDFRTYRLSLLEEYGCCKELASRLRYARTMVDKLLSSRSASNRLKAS

For LLCSTPNGL [Compound 2], at PLK1 PBD (367–603) (competition with fluorescein tracer MAGPMQS[pT]PLNGAKK, maximum 600 μM tested), the “PLK1 PBD FP IC50” value was “almost complete loss of binding”.

In the case of `CC(=O)N1CCC[C@H]1C(=O)N[C@@H](CC(C)C)C(=O)N[C@@H](Cc1c[nH]cn1)C(=O)N[C@@H](CO)C(=O)N[C@H](C(=O)N1CCC[C@H]1C(=O)N[C@@H](CCCCN)C(=O)N[C@@H](CC(N)=O)C(=O)NCC(=O)O)[C@@H](C)OP(=O)(O)O` [Compound 9, Ac-PLHS[pT]PKNG] (Ac-PLHS[pT]PKNG-OH), at PLK1 PBD (367–603), the “Selectivity Index” value was 20,906.

What is called IC50 is the concentration that gives 50% inhibition. A low value points to greater potency. For `CC(C)C[C@H](NC(=O)CNC(=O)[C@H](CC(N)=O)NC(=O)[C@@H]1CCCN1C(=O)[C@@H](NC(=O)[C@H](CO)NC(=O)[C@H](CS)NC(=O)[C@H](CC(C)C)NC(=O)[C@@H](N)CC(C)C)[C@@H](C)OP(=O)(O)O)C(=O)O` [Compound 1, LLCS[pT]PNGL] (H-LLCS[pT]PNGL-OH), the IC50 at PLK3 PBD (335–646) is more than 600 µM.

As to `CC[C@H](C)[C@H](NC(=O)[C@H](C)NC(=O)[C@@H](NC(=O)[C@H](CO)NC(=O)[C@H](Cc1c[nH]cn1)NC(=O)[C@H](CC(C)C)NC(=O)[C@@H]1CCCN1C(C)=O)[C@@H](C)OP(=O)(O)O)C(=O)O` [Compound 4, Ac-PLHS[pT]AI] (Ac-PLHS[pT]AI-OH), the “Selectivity Index” value at PLK1 PBD (367–603) is reported as 21,133.

As for `CC[C@H](C)[C@H](NC(=O)[C@H](C)NC(=O)[C@@H](NC(=O)[C@H](CO)NC(=O)[C@H](Cc1c[nH]cn1)NC(=O)[C@H](CC(C)C)NC(C)=O)[C@@H](C)OP(=O)(O)O)C(=O)O` [Compound 5, Ac-LHS[pT]AI] (Ac-LHS[pT]AI-OH), the “PLK3 PBD FP IC50” value on PLK3 PBD (335–646) (competition with fluorescein tracer GPLATS[pT]PKNG, maximum 600 μM tested) is given as “lost all detectable affinity”.

B1: PLK3 PBD 335-646 (protein)
chain: T1 sequence (Q9H4B4 335-646)
Broadly, the Kd is the constant that tells how readily two partners part at equilibrium. Read a high Kd as weaker binding. B1: in assay [1], binding was characterised by a dissociation constant (Kd) of 0.0272 µM. Besides, the IC50 in the assay with PBIP phosphopeptide 6 is more than 600 µM; with PBIP phosphopeptide 5, more than 600 µM; with chimeric peptide 3 it was 164 µM; in the assay with chimeric peptide 8 it was 6.3 µM; with Cdc25C phosphopeptide 1, more than 600 µM; with chimeric peptide 9, 134 µM. Further, the IC50 in the assay with PBIP phosphopeptide 4 was 270 µM; with FLIP 19, more than 600 µM; with PLK3 consensus peptide 7, 2.2 µM; with FLIP 21 it was 149 µM.
